Patent US20240199746A1 (published 2024)

T1: Ax1 protein, extracellular domain (human, UniProt P30530 26-451)
T1 construct: extracellular domain; also called Axl; Ark
T1 sequence (looked up): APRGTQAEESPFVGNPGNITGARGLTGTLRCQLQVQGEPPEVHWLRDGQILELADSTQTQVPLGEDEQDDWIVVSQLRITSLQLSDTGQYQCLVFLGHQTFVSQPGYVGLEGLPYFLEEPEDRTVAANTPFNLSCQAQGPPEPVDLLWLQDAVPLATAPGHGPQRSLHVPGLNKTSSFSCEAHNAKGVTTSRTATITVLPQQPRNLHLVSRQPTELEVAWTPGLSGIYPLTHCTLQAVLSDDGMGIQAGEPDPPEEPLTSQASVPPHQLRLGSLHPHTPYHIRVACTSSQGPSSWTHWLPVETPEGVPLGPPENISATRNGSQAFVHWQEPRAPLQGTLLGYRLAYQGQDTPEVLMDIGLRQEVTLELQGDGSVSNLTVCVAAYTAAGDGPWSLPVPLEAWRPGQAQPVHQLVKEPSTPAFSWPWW


What was measured:
[1] = target: T1, Ax1 protein, extracellular domain; assay: ELISA, mutant diluted 1:3
Source text: (§1) The DNA encoding the wild-type antibody was evolved to generate a mutant antibody library using Comprehensive Positional Evolution (CPE), which each position in the template antibody is randomized one at a time. Each mutant antibody in the library has only one single point mutation. The mutant antibodies in the library were generated by simultaneously screening for selective binding affinity to Ax1 at pH 6.0 over pH 7.4 by ELISA. Two mutant antibody dilutions were used: 1:3 and 1:9 dilutions.

[2] = target: T1, Ax1 protein, extracellular domain; assay: ELISA, mutant diluted 1:9
Source text: as §1

Binder	Affinity ELISA CPE mutant ratio (1:3, pH 6.0/7.4) [1]	Affinity ELISA CPE mutant ratio (1:9, pH 6.0/7.4) [2]
HC-W110H (antibody, V domains shown) VH: EVQLVQSGAEVKKPGATVKISCKVSGYSFTGHTMNWIRQPPGKGLEWIGLIKPSNGGTSYNQKFKGRVTISADKSISTAYLQWSSLKASDTAMYYCAHGHYESYFAMDYHGQGTLVTVSS VL: DIQMTQSPSSLSASVGDRVTITCKASQDVSSAVAWYQQKPGQAPRLLIYWASTRHTGVPSRFSGSGSGTEFTLTISSLQPDDFATYYCQEHFSTPLTFGQGTKVEIK	7.99	0.932
HC-E102L (antibody, V domains shown, CPE single point mutant) VH: EVQLVQSGAEVKKPGATVKISCKVSGYSFTGHTMNWIRQPPGKGLEWIGLIKPSNGGTSYNQKFKGRVTISADKSISTAYLQWSSLKASDTAMYYCAHGHYLSYFAMDYWGQGTLVTVSS VL: DIQMTQSPSSLSASVGDRVTITCKASQDVSSAVAWYQQKPGQAPRLLIYWASTRHTGVPSRFSGSGSGTEFTLTISSLQPDDFATYYCQEHFSTPLTFGQGTKVEIK	3.27	2.7
HC-W110P (antibody, V domains shown) VH: EVQLVQSGAEVKKPGATVKISCKVSGYSFTGHTMNWIRQPPGKGLEWIGLIKPSNGGTSYNQKFKGRVTISADKSISTAYLQWSSLKASDTAMYYCAHGHYESYFAMDYPGQGTLVTVSS VL: DIQMTQSPSSLSASVGDRVTITCKASQDVSSAVAWYQQKPGQAPRLLIYWASTRHTGVPSRFSGSGSGTEFTLTISSLQPDDFATYYCQEHFSTPLTFGQGTKVEIK	6.49	2.15
HC-W110L (antibody, V domains shown) VH: EVQLVQSGAEVKKPGATVKISCKVSGYSFTGHTMNWIRQPPGKGLEWIGLIKPSNGGTSYNQKFKGRVTISADKSISTAYLQWSSLKASDTAMYYCAHGHYESYFAMDYLGQGTLVTVSS VL: DIQMTQSPSSLSASVGDRVTITCKASQDVSSAVAWYQQKPGQAPRLLIYWASTRHTGVPSRFSGSGSGTEFTLTISSLQPDDFATYYCQEHFSTPLTFGQGTKVEIK	8.22	0.924
HC-W110A (antibody, V domains shown) VH: EVQLVQSGAEVKKPGATVKISCKVSGYSFTGHTMNWIRQPPGKGLEWIGLIKPSNGGTSYNQKFKGRVTISADKSISTAYLQWSSLKASDTAMYYCAHGHYESYFAMDYAGQGTLVTVSS VL: DIQMTQSPSSLSASVGDRVTITCKASQDVSSAVAWYQQKPGQAPRLLIYWASTRHTGVPSRFSGSGSGTEFTLTISSLQPDDFATYYCQEHFSTPLTFGQGTKVEIK	7.31	1.2
HC-W110N (antibody, V domains shown) VH: EVQLVQSGAEVKKPGATVKISCKVSGYSFTGHTMNWIRQPPGKGLEWIGLIKPSNGGTSYNQKFKGRVTISADKSISTAYLQWSSLKASDTAMYYCAHGHYESYFAMDYNGQGTLVTVSS VL: DIQMTQSPSSLSASVGDRVTITCKASQDVSSAVAWYQQKPGQAPRLLIYWASTRHTGVPSRFSGSGSGTEFTLTISSLQPDDFATYYCQEHFSTPLTFGQGTKVEIK	4.3	0.8
HC-W110R (antibody, V domains shown) VH: EVQLVQSGAEVKKPGATVKISCKVSGYSFTGHTMNWIRQPPGKGLEWIGLIKPSNGGTSYNQKFKGRVTISADKSISTAYLQWSSLKASDTAMYYCAHGHYESYFAMDYRGQGTLVTVSS VL: DIQMTQSPSSLSASVGDRVTITCKASQDVSSAVAWYQQKPGQAPRLLIYWASTRHTGVPSRFSGSGSGTEFTLTISSLQPDDFATYYCQEHFSTPLTFGQGTKVEIK	5.99	1.06
HC-W110T (antibody, V domains shown) VH: EVQLVQSGAEVKKPGATVKISCKVSGYSFTGHTMNWIRQPPGKGLEWIGLIKPSNGGTSYNQKFKGRVTISADKSISTAYLQWSSLKASDTAMYYCAHGHYESYFAMDYTGQGTLVTVSS VL: DIQMTQSPSSLSASVGDRVTITCKASQDVSSAVAWYQQKPGQAPRLLIYWASTRHTGVPSRFSGSGSGTEFTLTISSLQPDDFATYYCQEHFSTPLTFGQGTKVEIK	7.47	1.37
HC-B102A (antibody, V domains shown, CPE single point mutant; printed B102, read as E102 (other rows print HC-E102x)) VH: EVQLVQSGAEVKKPGATVKISCKVSGYSFTGHTMNWIRQPPGKGLEWIGLIKPSNGGTSYNQKFKGRVTISADKSISTAYLQWSSLKASDTAMYYCAHGHYASYFAMDYWGQGTLVTVSS VL: DIQMTQSPSSLSASVGDRVTITCKASQDVSSAVAWYQQKPGQAPRLLIYWASTRHTGVPSRFSGSGSGTEFTLTISSLQPDDFATYYCQEHFSTPLTFGQGTKVEIK	1.53	1.69
HC-B102H (antibody, V domains shown, CPE single point mutant; printed B102, read as E102 (other rows print HC-E102x)) VH: EVQLVQSGAEVKKPGATVKISCKVSGYSFTGHTMNWIRQPPGKGLEWIGLIKPSNGGTSYNQKFKGRVTISADKSISTAYLQWSSLKASDTAMYYCAHGHYHSYFAMDYWGQGTLVTVSS VL: DIQMTQSPSSLSASVGDRVTITCKASQDVSSAVAWYQQKPGQAPRLLIYWASTRHTGVPSRFSGSGSGTEFTLTISSLQPDDFATYYCQEHFSTPLTFGQGTKVEIK	2.08	2.31
HC-B102D (antibody, V domains shown, CPE single point mutant; printed B102, read as E102 (other rows print HC-E102x)) VH: EVQLVQSGAEVKKPGATVKISCKVSGYSFTGHTMNWIRQPPGKGLEWIGLIKPSNGGTSYNQKFKGRVTISADKSISTAYLQWSSLKASDTAMYYCAHGHYDSYFAMDYWGQGTLVTVSS VL: DIQMTQSPSSLSASVGDRVTITCKASQDVSSAVAWYQQKPGQAPRLLIYWASTRHTGVPSRFSGSGSGTEFTLTISSLQPDDFATYYCQEHFSTPLTFGQGTKVEIK	2.67	2.85
HC-A106L (antibody, V domains shown, CPE single point mutant) VH: EVQLVQSGAEVKKPGATVKISCKVSGYSFTGHTMNWIRQPPGKGLEWIGLIKPSNGGTSYNQKFKGRVTISADKSISTAYLQWSSLKASDTAMYYCAHGHYESYFLMDYWGQGTLVTVSS VL: DIQMTQSPSSLSASVGDRVTITCKASQDVSSAVAWYQQKPGQAPRLLIYWASTRHTGVPSRFSGSGSGTEFTLTISSLQPDDFATYYCQEHFSTPLTFGQGTKVEIK	21.5	1.61
HC-A106G (antibody, V domains shown, CPE single point mutant) VH: EVQLVQSGAEVKKPGATVKISCKVSGYSFTGHTMNWIRQPPGKGLEWIGLIKPSNGGTSYNQKFKGRVTISADKSISTAYLQWSSLKASDTAMYYCAHGHYESYFGMDYWGQGTLVTVSS VL: DIQMTQSPSSLSASVGDRVTITCKASQDVSSAVAWYQQKPGQAPRLLIYWASTRHTGVPSRFSGSGSGTEFTLTISSLQPDDFATYYCQEHFSTPLTFGQGTKVEIK	1.52	2.2
HC-B102G (antibody, V domains shown, CPE single point mutant; printed B102, read as E102 (other rows print HC-E102x)) VH: EVQLVQSGAEVKKPGATVKISCKVSGYSFTGHTMNWIRQPPGKGLEWIGLIKPSNGGTSYNQKFKGRVTISADKSISTAYLQWSSLKASDTAMYYCAHGHYGSYFAMDYWGQGTLVTVSS VL: DIQMTQSPSSLSASVGDRVTITCKASQDVSSAVAWYQQKPGQAPRLLIYWASTRHTGVPSRFSGSGSGTEFTLTISSLQPDDFATYYCQEHFSTPLTFGQGTKVEIK	1.8	2.68
HC-A106D (antibody, V domains shown, CPE single point mutant) VH: EVQLVQSGAEVKKPGATVKISCKVSGYSFTGHTMNWIRQPPGKGLEWIGLIKPSNGGTSYNQKFKGRVTISADKSISTAYLQWSSLKASDTAMYYCAHGHYESYFDMDYWGQGTLVTVSS VL: DIQMTQSPSSLSASVGDRVTITCKASQDVSSAVAWYQQKPGQAPRLLIYWASTRHTGVPSRFSGSGSGTEFTLTISSLQPDDFATYYCQEHFSTPLTFGQGTKVEIK	3.39	2.51
HC-B102F (antibody, V domains shown, CPE single point mutant; printed B102, read as E102 (other rows print HC-E102x)) VH: EVQLVQSGAEVKKPGATVKISCKVSGYSFTGHTMNWIRQPPGKGLEWIGLIKPSNGGTSYNQKFKGRVTISADKSISTAYLQWSSLKASDTAMYYCAHGHYFSYFAMDYWGQGTLVTVSS VL: DIQMTQSPSSLSASVGDRVTITCKASQDVSSAVAWYQQKPGQAPRLLIYWASTRHTGVPSRFSGSGSGTEFTLTISSLQPDDFATYYCQEHFSTPLTFGQGTKVEIK	1.88	1.36
